Reference: paper PMC4513881

Legend:
[1] = target: T1, DCL1-A (first dsRBD) (Arabidopsis thaliana) (UniProt Q9SP32); test: fluorescence anisotropy; conditions: FA: 10 mM phosphate pH 7.0, 50 nM labeled nucleic acid, temperature not stated; CD: 10 mM phosphate pH 7; NMR complex: 20 mM phosphate pH 7.0, 5 mM TCEP
T1 sequence: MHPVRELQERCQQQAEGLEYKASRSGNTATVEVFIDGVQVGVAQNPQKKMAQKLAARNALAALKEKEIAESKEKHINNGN

[2] = target: T2, DCL1-AB (both dsRBDs) (Arabidopsis thaliana) (UniProt Q9SP32); test: fluorescence anisotropy; conditions: FA: 10 mM phosphate pH 7.0, 50 nM labeled nucleic acid, temperature not stated; CD: 10 mM phosphate pH 7; NMR complex: 20 mM phosphate pH 7.0, 5 mM TCEP
T2 sequence: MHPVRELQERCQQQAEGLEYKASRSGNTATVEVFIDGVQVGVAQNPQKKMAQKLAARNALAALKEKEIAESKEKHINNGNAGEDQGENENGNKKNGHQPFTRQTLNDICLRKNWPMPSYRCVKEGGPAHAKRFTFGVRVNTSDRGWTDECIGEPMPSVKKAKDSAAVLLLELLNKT

dsDNA was tested, and the Kd [1] was 860 nM and the Kd [2] was 680 nM.
miR172a stem-loop (miRNA/miRNA* region) gave a Kd [1] of 723 nM and a Kd [2] of 67 nM.
